# Test results published in the supplement of paper PMC10567573.
# B1: RHOBTB2 (parent)
# chain: LYTGELDENERDLMHIAHIAELLE
# B2: LRRC45 (parent)
# chain: DLSAANEKNLLLQNQVDELERKFR
# Variants of: B1
# Assay: protein stability index of a GFP-peptide fusion (GPS, HEK-293T) (PSI 1-6); higher = more stable
# Details: c terminus: a fixed tail appended
# 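Further: lentivirally expressed fusions sorted by FACS into six bins by GFP to DsRed ratio, PSI derived from sequencing read proportions per bin multiplied by bin number.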
row,Variant,protein stability index
1,LYTGELDENERDLAHIAHIAELLE,2.39
2,LYTGELDENERDLWHIAHIAELLE,1.82
3,LYTGEPDENERDLMHIAHIAELLE,2.95
4,LYTGEVDENERDLMHIAHIAELLE,2.38
5,LYTGECDENERDLMHIAHIAELLE,2.91
6,LYTGEHDENERDLMHIAHIAELLE,2.96
7,LYTGELDENERDLMGIAHIAELLE,2.78
8,LYTGELDENERDLMWIAHIAELLE,2.47
9,LYTGELDENERDLMPIAHIAELLE,3.23
10,LYTGELDENERDLMIIAHIAELLE,1.93
11,LYTGELDENERDLMHIWHIAELLE,1.87
12,LYTGELDENERDLMHIQHIAELLE,2.95
13,LYTGELDENERDLMHICHIAELLE,1.77
14,LYTGELDENERDLMHWAHIAELLE,3.16
15,LYTGELDENERDLMHPAHIAELLE,4.15
16,LYTGELDENERDLMHTAHIAELLE,3.62
17,LYTGELDENERDPMHIAHIAELLE,4.82
18,LYTGELDENERDNMHIAHIAELLE,3.28
19,LYTGELDENERDHMHIAHIAELLE,3.58
20,LYTGELFENERDLMHIAHIAELLE,2.3
21,LYTGELTENERDLMHIAHIAELLE,2.16
22,LYTGELLENERDLMHIAHIAELLE,3.31
23,LYTGELDENERDLMHIAMIAELLE,2.71
24,LYTGELDENERDLMHIAGIAELLE,3.76
25,LYTGELDENERDLMHIAKIAELLE,3.54
26,LYTGELDENERDLMHIARIAELLE,2.38

row,Variant,protein stability index
1,LYTGELDENERDLMHIANIAELLE,3.47
2,LYTGELDENQRDLMHIAHIAELLE,2.61
3,LYTGELDENKRDLMHIAHIAELLE,1.94
4,LYTGELDENMRDLMHIAHIAELLE,1.68
5,LYTGELDENARDLMHIAHIAELLE,2.58
6,LYTGELDENLRDLMHIAHIAELLE,2.24
7,LYTGELDDNERDLMHIAHIAELLE,3.23
8,LYTGELDVNERDLMHIAHIAELLE,2.9
9,LYTGELDFNERDLMHIAHIAELLE,1.96
10,LYTGELDHNERDLMHIAHIAELLE,2.39
11,LYTKELDENERDLMHIAHIAELLE,1.89
12,LYTWELDENERDLMHIAHIAELLE,1.5
13,LYTEELDENERDLMHIAHIAELLE,2.32
14,LYTAELDENERDLMHIAHIAELLE,2.31
15,LYTLELDENERDLMHIAHIAELLE,1.76
16,LYTSELDENERDLMHIAHIAELLE,2.42
17,LYTGELDENERMLMHIAHIAELLE,2.95
18,LYTGELDENERELMHIAHIAELLE,2.47
19,LYTGELDENERYLMHIAHIAELLE,1.66
20,LYTGELDENEMDLMHIAHIAELLE,1.96
21,LYTGELDENEADLMHIAHIAELLE,2.27
22,MYTGELDENERDLMHIAHIAELLE,2.72
23,NYTGELDENERDLMHIAHIAELLE,2.8
24,WYTGELDENERDLMHIAHIAELLE,2.43
25,PYTGELDENERDLMHIAHIAELLE,2.92
26,LYTGELDESERDLMHIAHIAELLE,2.19

row,Variant,protein stability index
1,LYTGELDETERDLMHIAHIAELLE,2.71
2,LYTGELDEFERDLMHIAHIAELLE,1.34
3,LYTGELDEYERDLMHIAHIAELLE,1.64
4,LYTGELDEAERDLMHIAHIAELLE,2.57
5,LYYGELDENERDLMHIAHIAELLE,2.08
6,LYCGELDENERDLMHIAHIAELLE,2.31
7,LYTGELDENERDLMHIAHIAELWE,2.55
8,LYTGWLDENERDLMHIAHIAELLE,2.3
9,LYTGNLDENERDLMHIAHIAELLE,2.23
10,LYTGTLDENERDLMHIAHIAELLE,2.75
11,LYTGELDENERDLMHIAHICELLE,1.31
12,LYTGELDENERDLMHIAHIHELLE,3.54
13,LYTGELDENERDLMHIAHIGELLE,3.3
14,LYTGELDENERDLMHIAHINELLE,3.74
15,LPTGELDENERDLMHIAHIAELLE,3.2
16,LYTGELDENERDLMHIAHHAELLE,3.62
17,LYTGELDENERDLMHIAHIAELLL,2.18
18,LYTGELDENERDLMHIAHIAELLD,2.94
19,LYTGELDENERDLMHIAHIAEQLE,3.74
20,LYTGELDENERDLMHIAHIAETLE,3
21,LYTGELDENERDLMHIAHIAPLLE,3.3
22,LYTGELDENERDLMHIAHIAQLLE,2.32
23,LYTGELDENERDLMHIAHIANLLE,2.48
24,LYTGELDENERDLMHIAHIAALLE,1.72

# Variants of: B2
# Assay: as above
# Details: c terminus: a fixed tail appended
row,Variant,protein stability index
1,DLSAANEKNLSLQNQVDELERKFR,4.31
2,DLSAANEKNLYLQNQVDELERKFR,4.2
3,DLSAANEKNLHLQNQVDELERKFR,4.59
4,DLSAANEKNLDLQNQVDELERKFR,4.94
5,DLSAANEKNLPLQNQVDELERKFR,4.32
6,DLSAMNEKNLLLQNQVDELERKFR,3.62
7,DLSAVNEKNLLLQNQVDELERKFR,3.95
8,DLSAINEKNLLLQNQVDELERKFR,4.02
9,DLSAENEKNLLLQNQVDELERKFR,4.01
10,DLSAGNEKNLLLQNQVDELERKFR,4.22
11,DLSAFNEKNLLLQNQVDELERKFR,3.79
12,DLSARNEKNLLLQNQVDELERKFR,3.67
13,DLSAANEWNLLLQNQVDELERKFR,3.6
14,DLSAANENNLLLQNQVDELERKFR,4
15,DLSAANETNLLLQNQVDELERKFR,4.31
16,DLSAANEMNLLLQNQVDELERKFR,4
17,DLSAANEDNLLLQNQVDELERKFR,4.21
18,DLSAANEANLLLQNQVDELERKFR,4.62
19,DLSAANEYNLLLQNQVDELERKFR,3.63
20,DLSAANEKNLLCQNQVDELERKFR,4.31
21,DLSAANEKNLLQQNQVDELERKFR,4.19
22,DLSAANEKNLLLQNQVDELEVKFR,4.05
23,DLSAANEKNLLLQNQVDELENKFR,4.47

row,Variant,protein stability index
1,DLSAANEKNLLLQNQVDELEAKFR,4.09
2,DLSAANEKNLLLQNQVDELEPKFR,4.2
3,DLSAANEKNLLLQNQVDELEIKFR,3.55
4,DLSAAIEKNLLLQNQVDELERKFR,3.27
5,DLSAAQEKNLLLQNQVDELERKFR,4.73
6,DLSAAKEKNLLLQNQVDELERKFR,4.51
7,DLSAAPEKNLLLQNQVDELERKFR,4.62
8,DLSAAHEKNLLLQNQVDELERKFR,4.27
9,DLSAAMEKNLLLQNQVDELERKFR,3.97
10,DLSAANEKNLLLQNQVCELERKFR,3.24
11,DLSAANEKNLLLQNQVPELERKFR,3.57
12,DLSAANEKNLLLQNQVTELERKFR,2.96
13,DLSAANEKNLLLQNQVWELERKFR,2.9
14,DLSAANEKNLLLQNQVVELERKFR,3.4
15,DLSAANEKNLLLQNQVKELERKFR,3.55
16,DLSAANEKNLLLQNQVDDLERKFR,5.06
17,DLSAANEKNLLLQNQVDFLERKFR,3.16
18,DLSAANEKNLLLQNQVDKLERKFR,3.94
19,DLSAANEKNLLLQNQVDNLERKFR,3.56
20,DLSAANPKNLLLQNQVDELERKFR,4.31
21,DLSAANYKNLLLQNQVDELERKFR,2.98
22,DLSAANCKNLLLQNQVDELERKFR,3.78
23,DLSAANKKNLLLQNQVDELERKFR,3.7

row,Variant,protein stability index
1,DLPAANEKNLLLQNQVDELERKFR,4.31
2,DLIAANEKNLLLQNQVDELERKFR,3.51
3,DLTAANEKNLLLQNQVDELERKFR,3.62
4,DLHAANEKNLLLQNQVDELERKFR,4.13
5,DLWAANEKNLLLQNQVDELERKFR,3.18
6,DLAAANEKNLLLQNQVDELERKFR,4.44
7,DLFAANEKNLLLQNQVDELERKFR,3.49
8,DLNAANEKNLLLQNQVDELERKFR,4.07
9,DLSAANEKNLLLQNQVDELERKFK,4.66
10,DLSAANEKNLLLQNQVDELERKFM,3.96
11,DLSAANEKNLLLQNQVDELERKFH,4.31
12,DLSAANEKNLLLQNQVDELERKFV,3.71
13,DLSAANEKNLLLQNQVDELERKFP,4.59
14,DLSAANEKNILLQNQVDELERKFR,3.58
15,DLSAANEKNALLQNQVDELERKFR,4.18
16,DLSAANEKNRLLQNQVDELERKFR,4.06
17,DLSAANEKNYLLQNQVDELERKFR,3.71
18,DLSAANEKNSLLQNQVDELERKFR,4.45
19,DLSAANEKALLLQNQVDELERKFR,4.77
20,DLSAANEKVLLLQNQVDELERKFR,4.12
21,DLSAANEKYLLLQNQVDELERKFR,3.67
22,DLSAANEKTLLLQNQVDELERKFR,4.59
23,DLSAANEKNLLLQNQADELERKFR,4.48

row,Variant,protein stability index
1,DLSAANEKNLLLQNQCDELERKFR,3.88
2,DLSAANEKNLLLQNQLDELERKFR,4.05
3,DLSAANEKNLLLQNQVDELFRKFR,2.54
4,DLSAANEKNLLLQNQVDELQRKFR,3.47
5,DLSAANEKNLLLQNQVDELHRKFR,3.35
6,DLSAANEKNLLLQNQVDELVRKFR,3.75
7,DLSAANEKNLLLQKQVDELERKFR,3.69
8,DLSAANEKNLLLQMQVDELERKFR,3.54
9,DLSAANEKNLLLQHQVDELERKFR,3.62
10,DLSAANEKNLLLQQQVDELERKFR,4.49
11,DLSAANEKNLLLWNQVDELERKFR,3.3
12,DLSAANEKNLLLPNQVDELERKFR,3.8
13,DLSAANEKNLLLANQVDELERKFR,4.25
14,DLSAANEKNLLLQNQVDELERQFR,4.06
15,DLSAANEKNLLLQNQVDELEREFR,4.26
16,DLSQANEKNLLLQNQVDELERKFR,3.82
17,DLSFANEKNLLLQNQVDELERKFR,3.61
18,DLSVANEKNLLLQNQVDELERKFR,3.77
19,DLSKANEKNLLLQNQVDELERKFR,4.36
20,DLSEANEKNLLLQNQVDELERKFR,4.53
21,DMSAANEKNLLLQNQVDELERKFR,4.19
22,DESAANEKNLLLQNQVDELERKFR,5.13
23,DRSAANEKNLLLQNQVDELERKFR,4.86

row,Variant,protein stability index
1,DISAANEKNLLLQNQVDELERKFR,3.27
2,DHSAANEKNLLLQNQVDELERKFR,4.61
3,DYSAANEKNLLLQNQVDELERKFR,4.85
4,DDSAANEKNLLLQNQVDELERKFR,5.31
5,FLSAANEKNLLLQNQVDELERKFR,4.09
6,RLSAANEKNLLLQNQVDELERKFR,4.41
7,MLSAANEKNLLLQNQVDELERKFR,4.23
8,DLSAANEKNLLLQNQVDELERKRR,3.86
9,DLSAANEKNLLLQNQVDELERKYR,3.85
10,DLSAANEKNLLLQNQVDELERKPR,4.77
11,DLSAANEKNLLLQNQVDELERKGR,4.6
12,DLSAANEKNLLLQNTVDELERKFR,3.35
13,DLSAANEKNLLLQNYVDELERKFR,2.76
14,DLSAANEKNLLLQNQVDEIERKFR,4.24
15,DLSAANEKNLLLQNQVDEEERKFR,4.57
16,DLSAANEKNLLLQNQVDEMERKFR,4.03
17,DLSAANEKNLLLQNQVDEKERKFR,3.92
18,DLSAANEKNLLLQNQVDESERKFR,4.34
19,DLSAANEKNLLLQNQVDEYERKFR,3.48
20,DLSAANEKNLLLQNQVDEFERKFR,3.76
